Experimental data taken from patent US5641629, “Spectroscopically detectable nucleic acid ligands”.

Assays:
[1] = molecular target: T1, serum albumin (HSA) (Homo sapiens, UniProt P02768 P02768:25-609); experiment: FP; HSA up to 150 nM; conditions: tags: Sigma; label: 5'-fluorescein (6-FAM, C6 linker)
Method: (§1) The fluorescence polarization of the reaction mixtures was measured directly using 12×75 mm borosilicate glass test tubes. The maximum change in fluorescence polarization was reported as ΔmP (millipolarization units). As reported below in Table 1, the data represent the average of three readings at ambient temperature.

[2] = molecular target: T2, alpha-thrombin (Homo sapiens, UniProt P00734;P00734 P00734:328-363,P00734:364-622); experiment: FP; 140 mM NaCl, 20 mM Tris acetate, 1 mM CaCl2, 5 mM KCl, 1 mM MgCl2, pH 7.4, room temperature; delta mP +25
[3] = molecular target: T1, serum albumin (HSA); experiment: FP; no detectable binding by fluorescence anisotropy; conditions: tags: Sigma; label: fluorescein (C6 linker)
Method: Compound 4 was the control prepared in Example 1, and as such was added to the thrombin dilutions and HSA dilutions at the same respective concentrations of Compounds 1, 2 and 3 above. Similarly, Compound 4 was then subjected to the same conditions as Compounds 1, 2 and 3, and analyzed with an SLM instrument to determine anisotropy values as described in Example 4 below.

[4] = molecular target: T2, alpha-thrombin; experiment: FP; no detectable binding; anisotropy 0.0403 free, 0.0445 with thrombin
[5] = molecular target: T2, alpha-thrombin; experiment: FP; 140 mM NaCl, 20 mM Tris acetate, 1 mM CaCl2, 5 mM KCl, 1 mM MgCl2, pH 7.4, room temperature; delta mP +80
[6] = molecular target: T1, serum albumin (HSA); experiment: FP; HSA up to 660 nM; conditions: tags: Sigma; label: 5'-thiazole orange (C3 linker)
Method: as §1

[7] = molecular target: T1, serum albumin (HSA); experiment: FP; HSA up to 247 nM; anisotropy 0.04429 free, 0.04433 with HSA; conditions: tags: Sigma; label: 5'-fluorescein (6-FAM, C6 linker)
[8] = molecular target: T2, alpha-thrombin; experiment: FP; 140 mM NaCl, 20 mM Tris acetate, 1 mM CaCl2, 5 mM KCl, 1 mM MgCl2, pH 7.4, room temperature; delta mP +52
[9] = molecular target: neutrophil elastase (Homo sapiens, UniProt P08246 P08246:30-267); experiment: FP; 150 mM NaCl, 2 mM MgCl2, 6 mM KCl, 10 mM Tris, pH 7.0, room temperature; delta mP +30; conditions: tags: Athens Research Technology; label: 5'-fluorescein (6-FAM, C6 linker)
Sequence of neutrophil elastase (P08246 30-267, one chain of several): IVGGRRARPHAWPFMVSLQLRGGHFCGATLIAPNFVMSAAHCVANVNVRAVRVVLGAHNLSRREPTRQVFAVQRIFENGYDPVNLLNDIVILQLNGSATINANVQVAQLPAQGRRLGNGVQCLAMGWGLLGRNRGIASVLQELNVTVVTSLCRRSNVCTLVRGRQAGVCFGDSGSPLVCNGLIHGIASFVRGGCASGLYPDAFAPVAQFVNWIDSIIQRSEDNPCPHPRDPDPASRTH
Method: An elastase solution was prepared from human neutrophil elastase (Athens Research Technology) at 180 nM for the highest concentration in a buffer of 150 mM NaCl, 2 mM MgCl_2, 6 mM KCl, 10 mM TRIS, pH 7.0. Serial dilutions of this solution were then prepared to give a range of concentrations from 0.027 nM to 180 nM.
as §1

[10] = molecular target: T1, serum albumin (HSA); experiment: FP; HSA up to 1080 nM; conditions: tags: Sigma; label: fluorescein tethered at the T7 phosphorothioate via iodoacetamide
Method: A thrombin solution was prepared at 600 nM for the highest concentration in the same buffer as was used for Compound 1 in Example 3. Serial dilutions of this solution were then prepared to give a range of concentrations from 0.045 nM to 600 nM.
Compound 6 was then added to a sample of each dilution of thrombin solution and HSA solution to a concentration of 2.3 nM, then vortexed and let stand at room temperature for 15 minutes before fluorescence measurement was taken as described in Example 3. The data from the measurements is presented below as the average of three readings at ambient temperature.

[11] = molecular target: T2, alpha-thrombin; experiment: FP; 140 mM NaCl, 20 mM Tris acetate, 1 mM CaCl2, 5 mM KCl, 1 mM MgCl2, pH 7.4, room temperature; delta mP +55

B1: Compound 2 (ssDNA)
DNA: CAGTCCGTGGTAGGGCAGGTTGGGGTGACTTCGTGGAA
binding result [1]: no binding | Kd [2]: 1.5 nM

B2: Compound 4 (scrambled control) (ssDNA)
DNA: GGTGGTGGTTGTGGT
binding result [3]: no binding | binding result [4]: no binding

B3: Compound 3 (ssDNA)
DNA: GGTTGGTGTGGTTGG
Kd [5]: 5.7 nM | binding result [6]: no binding

B4: Compound 1 (ssDNA)
DNA: GGTTGGTGTGGTTGG
binding result [7]: no binding | Kd [8]: 2 nM

B5: Compound 5 (ssDNA)
DNA: TAGCGATACTGCGTGGGTTGGGGCGGGTAGGGCCAGCAGTCTCGT
Kd [9]: 2.6 nM

B6: Compound 6 (ssDNA)
DNA: GGTTGGTGTGGTTGG
modifications: PS between G6 and T7
binding result [10]: no binding | Kd [11]: 11.1 nM
